Experimental data from patent US20220144911A1 (UAB RESEARCH FOUNDATION, published 2022).

Experiments:
[1] = target: RhCMVIL10 (rhesus cytomegalovirus (printed as …))
[2] = target: T1, cellular RhIL10 (rhesus macaque, UniProt P51496 19-178); experiment: SPR, ratio of KD values
T1 construct: also called Rhesus IL10
Procedure: (§1) Following the association phase, dissociation was monitored for 720 seconds. The binding parameters were extracted from the sensorgrams by fitting the data to a 1:1 binding model.
(§2) Surface Plasmon Resonance (SPR): SPR data collection and analysis was performed using a Biacore T-200 (GE healthcare). […] Sensorgrams were fit to appropriate models using Biacore T-200 evaluation software version 1.0.

[3] = target: T1, cellular RhIL10; experiment: SPR (Biacore T-200), RhIL10R1-FC captured by anti-human FC, IL10 as analyte, 1:1 model
Procedure: as §1, §2

Chain of RhCMVIL10 (rhesus cytomegalovirus (printed as …)) (P51496 whole entry): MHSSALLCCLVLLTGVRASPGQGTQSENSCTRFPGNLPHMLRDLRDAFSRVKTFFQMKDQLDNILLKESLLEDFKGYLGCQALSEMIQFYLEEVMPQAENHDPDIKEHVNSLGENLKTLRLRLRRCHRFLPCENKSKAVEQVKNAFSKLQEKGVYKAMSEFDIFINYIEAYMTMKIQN
T1 sequence (P51496 19-178 limits assumed): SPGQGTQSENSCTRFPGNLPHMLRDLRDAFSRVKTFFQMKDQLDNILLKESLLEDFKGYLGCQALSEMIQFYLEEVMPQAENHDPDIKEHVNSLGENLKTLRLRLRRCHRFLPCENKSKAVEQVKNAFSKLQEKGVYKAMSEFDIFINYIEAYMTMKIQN

B1: RhIL10R1-FC-SLS (Fc fusion)
chain: AHGTELPSPPSVWFEAEFFHHILHWTPIPNQSESTCYEVALLRYGTGRWNSISNCSQALSYDLTAVTLDLYRSNGYWARVRAVDGSRHSNWTVTNTRFSLDEVTLTVGSVKLEIHNGFILGKIQPPRPKMAPANDTYESIFRHFREYEIAIRKVPGNFTFTHKKVKHENFSLLTSGEVGEFCVQVKPSVTSRTNKGMWSKEECVSLTRQYFTVTNVGSGGGGPSVFLFPPKPKDTLMISRTPEVTCVVVDVSQEDPDVKFNWYVNGAEVHHAQTKPRETQYNSTYRVVSVLTVTHQDWLNGKEYTCKVSNKALPAPIQKTISKDKGQPREPQVYTLPPSREELTKNQVSLTCLVKGFYPSDIVVEWESSGQPENTYKTTPPVLDSDGSYFLYSKLTVDKSRWQQGNVFSCSVMHEALHNHYTQKSLSLSGGCGTPGK
notes: also called RhIL10R1-SLS; Rh10R1-FC
Kd [1]: 0.0724 nM
koff [1]: 0.00017 s⁻¹
kon [1]: 2.35e+06 M⁻¹ s⁻¹
fold greater affinity than 1F11 [2]: 4.8 fold
Kd [3]: 0.136 nM
koff [3]: 0.000454 s⁻¹
kon [3]: 3.35e+06 M⁻¹ s⁻¹
